Results on five molecules are retold here after publication PMC5379935, “Crystal structure and RNA-binding properties of an Hfq homolog from the deep-branching Aquificae: conservation of the lateral RNA-binding mode” (Acta Crystallographica. Section D, Structural Biology, 2016).

The target of data set [1] is T1, Aae Hfq (Aquifex aeolicus, UniProt O66512 1-80).
T1 sequence: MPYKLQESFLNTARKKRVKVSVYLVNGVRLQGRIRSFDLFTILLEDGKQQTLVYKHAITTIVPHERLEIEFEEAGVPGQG
In words: fluorescence polarization; no significant binding detected; FP: 50 mM Tris pH 8.0, 500 mM NaCl, 5 nM FAM-RNA, +/- 10 mM MgCl2, 45 min, room temperature. The following applies: protein: recombinant; tags: 6xHis removed by thrombin; residual N-terminal G-2 S-1 H0; chain copies: 6; label: FAM; single strand.

Data set [2] has as its target T1, Aae Hfq. In words: fluorescence polarization; no Mg2+; per hexamer; 4-parameter fit, Hill 1.3; FP: 50 mM Tris pH 8.0, 500 mM NaCl, 5 nM FAM-RNA, +/- 10 mM MgCl2, 45 min, room temperature. The following applies: protein: recombinant; tags: 6xHis removed by thrombin; residual N-terminal G-2 S-1 H0; chain copies: 6; label: 5'-FAM; single strand. (In fluorescence polarisation assays a small probe gives low polarisation when free and higher when bound to something large.)

Data set [3] concerns the target T1, Aae Hfq. In words: fluorescence polarization; 10 mM Mg2+; per hexamer; 4-parameter fit, Hill 1.7; FP: 50 mM Tris pH 8.0, 500 mM NaCl, 5 nM FAM-RNA, +/- 10 mM MgCl2, 45 min, room temperature. Particulars: protein: recombinant; tags: 6xHis removed by thrombin; residual N-terminal G-2 S-1 H0; chain copies: 6; label: 5'-FAM; single strand.
Data set [4] concerns the molecule itself. Description: cross-linking; formaldehyde, indirect (vapor-diffusion) method, 0.6 mg/ml Hfq in 25 mM HEPES pH 8.0, 500 mM NaCl, 310 K, 40 min; read out by MALDI-TOF MS.
Data set [5] deals with the molecule itself. Description: SEC-MALS; Superdex 200 Increase 10/300 GL, 50 mM Tris pH 8.0, 200 mM NaCl; Aae Hfq alone; monodisperse peak. On the technique in general: In gel filtration, larger molecules generally elute earlier.
For data set [6], the target named is T1, Aae Hfq. In words: fluorescence polarization; 10 mM Mg2+; per hexamer; 4-parameter fit, Hill 2.4; FP: 50 mM Tris pH 8.0, 500 mM NaCl, 5 nM FAM-RNA, +/- 10 mM MgCl2, 45 min, room temperature. The following applies: protein: recombinant; tags: 6xHis removed by thrombin; residual N-terminal G-2 S-1 H0; chain copies: 6; label: 5'-FAM; single strand.
Data set [7] has as its target T1, Aae Hfq. In words: fluorescence polarization; no Mg2+; per hexamer; 4-parameter fit, Hill 2.2; FP: 50 mM Tris pH 8.0, 500 mM NaCl, 5 nM FAM-RNA, +/- 10 mM MgCl2, 45 min, room temperature. Particulars: protein: recombinant; tags: 6xHis removed by thrombin; residual N-terminal G-2 S-1 H0; chain copies: 6; label: 5'-FAM; single strand.

Turning to CCCCCC (ssRNA) [FAM-C6], in data set [1], the binding result was “no binding”.

Take UUUUUU (ssRNA) [FAM-U6]: the values for the Kd in data set [2] and in data set [3] were 21.3 nM and 2.1 nM, respectively.

B1: Aquifex aeolicus Hfq (working construct after proteolytic removal of the 6xHis tag, 83 amino acids) (natural protein)
chain: GSHMPYKLQESFLNTARKKRVKVSVYLVNGVRLQGRIRSFDLFTILLEDGKQQTLVYKHAITTIVPHERLEIEFEEAGVPGQG
notes: three plasmid-derived residues (G-2, S-1, H0) that remain at the N-terminus after thrombin cleavage of the 6xHis tag; 83 residues, 9482.9 Da after tag removal (cleaved at G-2); Hexameric ring; two rings stack into a dodecamer in the P1 crystal, on cross-linking, and in solution with A18 RNA; also called Aae Hfq; (Hfq)6; not shown: His6, N-terminal, cleaved
As to B1, the figures for the “stoichiometry N” value in data set [4] and in data set [5] were 12 and 6, respectively.

Turning to AAAAAA (ssRNA) [FAM-A6], the binding result in data set [1] is recorded as “no binding”.

In the case of AAAAAAAAAAAAAAAAAA (ssRNA) [FAM-A18], the Kd turned out to be 9.5 nM in data set [6] and 17.4 nM in data set [7].

Broadly, the Kd is a measure of binding affinity in units of concentration. In general, stoichiometry N refers to the number of molecules, sites or subunits per partner or assembly.
